Laboratory results: patent publication US20150118700

Biological target: T1, α-fructosyl hexapeptide (α-fructosyl-valyl-histidyl-leucyl-threonyl-propyl-glutamic acid)
T1 chain: VHLTPE

B1: CFP-T7-H2-62Q (protein)
chain: MTSNRADTRVIVVGGGGTIGSSTALHLVRSGYAPANITVLDTFEIPSAQSAGHDLNKIMGIQLRNKVDLQMSLEARQMWKEDELFQPFFHNTGRMDCEHTPEGIEDLKKLYQALHDAGAGLEKTHAWLDNEDEILSKMPLLQRDQIQGWKAIWSQDGGWLAAAKAINAIGQFLKERGVKFGFGGAGSFKQPLFDDEGTTCIGVETADGTKYYADKVVLAAGAWSPTLVDLEDQCCSKAWVYAHIQLTPEEAAEYKGVPVVYNGEFGFFFEPDEFGVIKVCDEFPGFSRFKEHQPYGAPSPKRISVPRSHAKHPTDTYPDASEVSIKKAIATFLPRFQDKELFNRALCWCTDTADAALLMCEHPKWKNFILATGDSGHSFKILPNVGKYVVELIEGRLPEEMAYQWRWRPGGDALKSRRAAPPKDLADMPGWKHDPKL
**Q.** How did the αF6P oxidation activity ratio, relative to CFP-T7-H2 designated to be 100 (relative (CFP-T7-H2 = 100)) turn out when B1 was run?
**A.** Its αF6P oxidation activity ratio, relative to CFP-T7-H2 designated to be 100 (relative (CFP-T7-H2 = 100)) is 11.

B2: CFP-T7-H7 (protein)
chain: MTSNRADTRVIVVGGGGTIGSSTALHLVRSGYAPANITVLDTFEIPSAQSAGHDLNKIMGIDLANKVDLQMSLEARQMWKEDELFQPFFHNTGRMDCEHTPEGIEDLKKLYQALHDAGAGLEKTHAWLDNEDEILSKMPLLQRDQIQGWKAIWSQDGGWLAAAKAINAIGQFLKERGVKFGFGGAGSFKQPLFDDEGTTCIGVETADGTKYYADKVVLAAGAWSPTLVDLEDQCCSKAWVYAHIQLTPEEAAEYKGVPVVYNGEFGFFFEPDEFGVIKVCDEFPGFSRFKEHQPYGAPSPKRISVPRSHAKHPTDTYPDASEVSIKKAIATFLPRFQDKELFNRALCWCTDTADAALLMCEHPKWKNFILATGDSGHSFKILPNVGKYVVELIEGRLPEEMAYQWRWRPGGDALKSRRAAPPKDLADMPGWKHDPKL
**Q.** B2 was tested. Which αF6P oxidation activity ratio, relative to CFP-T7-H6 designated to be 100 (relative (CFP-T7-H6 = 100)) did it give?
**A.** Its αF6P oxidation activity ratio, relative to CFP-T7-H6 designated to be 100 (relative (CFP-T7-H6 = 100)) is 17.

B3: CFP-T7-H8 (protein)
chain: MTSNRADTRVIVVGGGGTIGSSTALHLVRSGYAPANITVLDTFEIPSAQSAGHDLNKIMGIDLENKVDLQMSLEARQMWKEDELFQPFFHNTGRMDCEHTPEGIEDLKKLYQALHDAGAGLEKTHAWLDNEDEILSKMPLLQRDQIQGWKAIWSQDGGWLAAAKAINAIGQFLKERGVKFGFGGAGSFKQPLFDDEGTTCIGVETADGTKYYADKVVLAAGAWSPTLVDLEDQCCSKAWVYAHIQLTPEEAAEYKGVPVVYNGEFGFFFEPDEFGVIKVCDEFPGFSRFKEHQPYGAPSPKRISVPRSHAKHPTDTYPDASEVSIKKAIATFLPRFQDKELFNRALCWCTDTADAALLMCEHPKWKNFILATGDSGHSFKILPNVGKYVVELIEGRLPEEMAYQWRWRPGGDALKSRRAAPPKDLADMPGWKHDPKL
**Q.** Which αF6P oxidation activity ratio, relative to CFP-T7-H6 designated to be 100 (relative (CFP-T7-H6 = 100)) does the source give for B3 here?
**A.** Its αF6P oxidation activity ratio, relative to CFP-T7-H6 designated to be 100 (relative (CFP-T7-H6 = 100)) is 2.

B4: CFP-T7-H6 (protein)
chain: MTSNRADTRVIVVGGGGTIGSSTALHLVRSGYAPANITVLDTFEIPSAQSAGHDLNKIMGIDLRNKVDLQMSLEARQMWKEDELFQPFFHNTGRMDCEHTPEGIEDLKKLYQALHDAGAGLEKTHAWLDNEDEILSKMPLLQRDQIQGWKAIWSQDGGWLAAAKAINAIGQFLKERGVKFGFGGAGSFKQPLFDDEGTTCIGVETADGTKYYADKVVLAAGAWSPTLVDLEDQCCSKAWVYAHIQLTPEEAAEYKGVPVVYNGEFGFFFEPDEFGVIKVCDEFPGFSRFKEHQPYGAPSPKRISVPRSHAKHPTDTYPDASEVSIKKAIATFLPRFQDKELFNRALCWCTDTADAALLMCEHPKWKNFILATGDSGHSFKILPNVGKYVVELIEGRLPEEMAYQWRWRPGGDALKSRRAAPPKDLADMPGWKHDPKL
**Q.** Which results are given for B4?
**A.** αF6P oxidation activity ratio (reference, designated to be 100) (relative (CFP-T7-H6 = 100)): 100; αF6P oxidation activity ratio, relative to CFP-T7-H2 designated to be 100 (relative (CFP-T7-H2 = 100)): 513; αF6P oxidation activity, relative to αFVH oxidation activity designated to be 100 (relative (αFVH = 100)): 3

B5: CFP-T7-H2 (protein)
chain: MTSNRADTRVIVVGGGGTIGSSTALHLVRSGYAPANITVLDTFEIPSAQSAGHDLNKIMGIALRNKVDLQMSLEARQMWKEDELFQPFFHNTGRMDCEHTPEGIEDLKKLYQALHDAGAGLEKTHAWLDNEDEILSKMPLLQRDQIQGWKAIWSQDGGWLAAAKAINAIGQFLKERGVKFGFGGAGSFKQPLFDDEGTTCIGVETADGTKYYADKVVLAAGAWSPTLVDLEDQCCSKAWVYAHIQLTPEEAAEYKGVPVVYNGEFGFFFEPDEFGVIKVCDEFPGFSRFKEHQPYGAPSPKRISVPRSHAKHPTDTYPDASEVSIKKAIATFLPRFQDKELFNRALCWCTDTADAALLMCEHPKWKNFILATGDSGHSFKILPNVGKYVVELIEGRLPEEMAYQWRWRPGGDALKSRRAAPPKDLADMPGWKHDPKL
**Q.** B5 was tested. Which αF6P oxidation activity ratio (reference, designated to be 100) (relative (CFP-T7-H2 = 100)) did it give?
**A.** Its αF6P oxidation activity ratio (reference, designated to be 100) (relative (CFP-T7-H2 = 100)) is 100.

**Q.** And the αF6P oxidation activity, relative to αFVH oxidation activity designated to be 100 (relative (αFVH = 100))?
**A.** Its αF6P oxidation activity, relative to αFVH oxidation activity designated to be 100 (relative (αFVH = 100)) is 0.0735.

B6: CFP-T7-H2-62E (protein)
chain: MTSNRADTRVIVVGGGGTIGSSTALHLVRSGYAPANITVLDTFEIPSAQSAGHDLNKIMGIELRNKVDLQMSLEARQMWKEDELFQPFFHNTGRMDCEHTPEGIEDLKKLYQALHDAGAGLEKTHAWLDNEDEILSKMPLLQRDQIQGWKAIWSQDGGWLAAAKAINAIGQFLKERGVKFGFGGAGSFKQPLFDDEGTTCIGVETADGTKYYADKVVLAAGAWSPTLVDLEDQCCSKAWVYAHIQLTPEEAAEYKGVPVVYNGEFGFFFEPDEFGVIKVCDEFPGFSRFKEHQPYGAPSPKRISVPRSHAKHPTDTYPDASEVSIKKAIATFLPRFQDKELFNRALCWCTDTADAALLMCEHPKWKNFILATGDSGHSFKILPNVGKYVVELIEGRLPEEMAYQWRWRPGGDALKSRRAAPPKDLADMPGWKHDPKL
**Q.** B6 was tested. Which αF6P oxidation activity ratio, relative to CFP-T7-H2 designated to be 100 (relative (CFP-T7-H2 = 100)) did it give?
**A.** Its αF6P oxidation activity ratio, relative to CFP-T7-H2 designated to be 100 (relative (CFP-T7-H2 = 100)) is 21.

B7: CFP-T7-H10 (protein)
chain: MTSNRADTRVIVVGGGGTIGSSTALHLVRSGYAPANITVLDTFEIPSAQSAGHDLNKIMGIDLRNKVDLQMSLEARQMWKEDELFQPFFHNTGRMDCEHTPEGIEALKKLYQALHDAGAGLEKTHAWLDNEDEILSKMPLLQRDQIQGWKAIWSQDGGWLAAAKAINAIGQFLKERGVKFGFGGAGSFKQPLFDDEGTTCIGVETADGTKYYADKVVLAAGAWSPTLVDLEDQCCSKAWVYAHIQLTPEEAAEYKGVPVVYNGEFGFFFEPDEFGVIKVCDEFPGFSRFKEHQPYGAPSPKRISVPRSHAKHPTDTYPDASEVSIKKAIATFLPRFQDKELFNRALCWCTDTADAALLMCEHPKWKNFILATGDSGHSFKILPNVGKYVVELIEGRLPEEMAYQWRWRPGGDALKSRRAAPPKDLADMPGWKHDPKL
**Q.** Which αF6P oxidation activity ratio, relative to CFP-T7-H6 designated to be 100 (relative (CFP-T7-H6 = 100)) does the source give for B7 here?
**A.** Its αF6P oxidation activity ratio, relative to CFP-T7-H6 designated to be 100 (relative (CFP-T7-H6 = 100)) is 301.

B8: CFP-T7-H9 (protein)
chain: MTSNRADTRVIVVGGGGTIGSSTALHLVRSGYAPANITVLDTFEIPSAQSAGHDLNKIMGIDLHNKVDLQMSLEARQMWKEDELFQPFFHNTGRMDCEHTPEGIEDLKKLYQALHDAGAGLEKTHAWLDNEDEILSKMPLLQRDQIQGWKAIWSQDGGWLAAAKAINAIGQFLKERGVKFGFGGAGSFKQPLFDDEGTTCIGVETADGTKYYADKVVLAAGAWSPTLVDLEDQCCSKAWVYAHIQLTPEEAAEYKGVPVVYNGEFGFFFEPDEFGVIKVCDEFPGFSRFKEHQPYGAPSPKRISVPRSHAKHPTDTYPDASEVSIKKAIATFLPRFQDKELFNRALCWCTDTADAALLMCEHPKWKNFILATGDSGHSFKILPNVGKYVVELIEGRLPEEMAYQWRWRPGGDALKSRRAAPPKDLADMPGWKHDPKL
**Q.** With B8 as the protein, how does the αF6P oxidation activity ratio, relative to CFP-T7-H6 designated to be 100 (relative (CFP-T7-H6 = 100)) read?
**A.** The αF6P oxidation activity ratio, relative to CFP-T7-H6 designated to be 100 (relative (CFP-T7-H6 = 100)) was 44.
